What was measured:
human CXCR4 [1] = target: T1, human CXCR4 (human, UniProt P61073 1-352); assay: cell-based or functional assay
human CXCR4 [2] = target: T1, human CXCR4; assay: flow cytometry, IgG 100 nM, Cf2Th-hCXCR4 cells
Protocol: (§1) Cells over-expressing different GPCRs other than CXCR4 and several lines transfected to over-express CXCR4 (R1610-hCXCR4, Cf2Th-hCXCR4 and CHO-hCXCR4) were compared. Cultures were incubated with a test IgG at 100 nM in FACS buffer for 40 min at 4° C. Thereafter, cells were washed twice, stained with anti-human-Fc antibody-PE conjugate (Jackson Immunoresearch Laboratories Inc., West Grove, Pa.), washed twice in FACS buffer and then transferred to FIX buffer. Fluorescence intensities were measured by GUAVA PCA-96 at 425V (in triplicate).

hCCR3 = target: T2, hCCR3 (human, UniProt P51677 1-355); assay: flow cytometry, IgG 100 nM, cells over-expressing hCCR3
T2 construct: whole, on cells
T2 sequence (looked up): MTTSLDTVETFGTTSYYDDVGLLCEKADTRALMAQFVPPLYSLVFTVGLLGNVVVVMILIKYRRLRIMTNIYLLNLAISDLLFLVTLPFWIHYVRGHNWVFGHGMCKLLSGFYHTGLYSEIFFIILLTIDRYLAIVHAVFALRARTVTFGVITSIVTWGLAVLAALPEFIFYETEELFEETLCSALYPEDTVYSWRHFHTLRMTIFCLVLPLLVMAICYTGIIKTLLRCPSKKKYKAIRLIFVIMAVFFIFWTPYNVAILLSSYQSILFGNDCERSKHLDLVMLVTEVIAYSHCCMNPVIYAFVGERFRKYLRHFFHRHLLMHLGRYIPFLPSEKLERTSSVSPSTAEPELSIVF
Protocol: as §1
(§2) The expression of GPCRs other than CXCR4 was confirmed using commercially available antibodies (positive controls). For example, a commercial anti-CXCR1 antibody was used as a positive control for confirming the expression of CXCR1 on the CXCR1-transfected CHO cells.

hCCR4 = target: T3, hCCR4 (human, UniProt P51679 1-360); assay: flow cytometry, IgG 100 nM, cells over-expressing hCCR4
T3 construct: whole, on cells
T3 sequence (looked up): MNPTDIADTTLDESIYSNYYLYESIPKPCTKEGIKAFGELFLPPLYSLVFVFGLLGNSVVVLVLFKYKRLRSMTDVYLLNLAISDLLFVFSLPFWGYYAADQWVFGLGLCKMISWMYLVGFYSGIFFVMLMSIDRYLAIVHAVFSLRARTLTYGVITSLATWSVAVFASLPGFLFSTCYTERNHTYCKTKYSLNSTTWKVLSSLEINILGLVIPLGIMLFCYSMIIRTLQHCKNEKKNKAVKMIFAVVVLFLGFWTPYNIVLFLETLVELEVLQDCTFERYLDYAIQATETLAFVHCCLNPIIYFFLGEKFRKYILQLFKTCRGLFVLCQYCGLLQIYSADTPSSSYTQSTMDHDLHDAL
Protocol: as §1, §2

hCCR5 = target: T4, hCCR5 (human, UniProt P51681 1-352); assay: flow cytometry, IgG 100 nM, cells over-expressing hCCR5
T4 construct: whole, on cells
Protocol: as §1, §2

hCCR7 = target: T5, hCCR7 (human, UniProt P32248 25-378); assay: flow cytometry, IgG 100 nM, cells over-expressing hCCR7
T5 construct: whole, on cells
T5 sequence (looked up): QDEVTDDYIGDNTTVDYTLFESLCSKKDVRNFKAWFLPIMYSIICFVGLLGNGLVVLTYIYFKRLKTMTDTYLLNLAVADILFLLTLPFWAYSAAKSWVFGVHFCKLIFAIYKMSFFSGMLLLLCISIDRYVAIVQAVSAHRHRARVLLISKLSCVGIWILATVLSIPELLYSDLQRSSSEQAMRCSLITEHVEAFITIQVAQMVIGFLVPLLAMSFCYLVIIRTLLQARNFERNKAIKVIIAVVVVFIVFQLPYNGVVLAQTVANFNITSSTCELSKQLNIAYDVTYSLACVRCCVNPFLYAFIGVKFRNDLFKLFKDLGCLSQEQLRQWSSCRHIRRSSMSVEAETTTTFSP
Protocol: as §1, §2

hCCR9 = target: T6, hCCR9 (human, UniProt P51686 1-369); assay: flow cytometry, IgG 100 nM, cells over-expressing hCCR9
T6 construct: whole, on cells
T6 sequence (looked up): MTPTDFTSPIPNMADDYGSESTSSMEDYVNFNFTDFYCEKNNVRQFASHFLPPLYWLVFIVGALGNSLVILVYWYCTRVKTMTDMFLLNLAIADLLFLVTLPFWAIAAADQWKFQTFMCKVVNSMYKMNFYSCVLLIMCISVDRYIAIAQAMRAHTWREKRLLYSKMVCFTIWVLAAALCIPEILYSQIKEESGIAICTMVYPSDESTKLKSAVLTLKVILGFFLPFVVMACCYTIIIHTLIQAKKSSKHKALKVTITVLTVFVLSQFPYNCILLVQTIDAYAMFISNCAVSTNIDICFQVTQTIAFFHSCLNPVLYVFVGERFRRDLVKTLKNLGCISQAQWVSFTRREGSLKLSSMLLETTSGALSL
Protocol: as §1

hCXCR6 = target: T7, hCXCR6 (human, UniProt O00574 1-342); assay: flow cytometry, IgG 100 nM, cells over-expressing hCXCR6
T7 construct: whole, on cells
Protocol: as §1, §2

human CXCR4 [3] = target: T1, human CXCR4; assay: flow cytometry on Cf2-Th cells transfected with human CXCR4, IgG1 format
Protocol: A typical protocol for the fluorescent flow cytometry-based assay was as follows. Ten microliter of a purified test IgG solution or buffer as a control were added to 10 microliter of a suspension containing approximately 30,000 Cf2-Th cells transfected to express human CXCR4. After incubation on ice for 40 min, cells were washed with FACS buffer (phosphate-buffered saline (PBS), pH7.4; 2% fetal calf serum, 0.1% sodium azide) to remove unbound antibodies. Ten microliter of a solution of phycoerythrin (PE)-conjugated mouse anti-human Fc monoclonal antibody (1/20 dilution; catalog number 12-4998-82, eBioscience Inc., San Diego, Calif.) were then added to the cells, and, after a 30-min incubation on ice, cells were washed twice and then formalin-fixed (FIX buffer: PBS, pH7.4; 0.5% formaldehyde). Fixed samples were analysed by fluorescent flow cytometry using a Guava-PCA96 instrument (EMD Millipore Chemicals, Merck KGaA, Darmstadt, Germany).

T1 sequence (P61073 whole entry): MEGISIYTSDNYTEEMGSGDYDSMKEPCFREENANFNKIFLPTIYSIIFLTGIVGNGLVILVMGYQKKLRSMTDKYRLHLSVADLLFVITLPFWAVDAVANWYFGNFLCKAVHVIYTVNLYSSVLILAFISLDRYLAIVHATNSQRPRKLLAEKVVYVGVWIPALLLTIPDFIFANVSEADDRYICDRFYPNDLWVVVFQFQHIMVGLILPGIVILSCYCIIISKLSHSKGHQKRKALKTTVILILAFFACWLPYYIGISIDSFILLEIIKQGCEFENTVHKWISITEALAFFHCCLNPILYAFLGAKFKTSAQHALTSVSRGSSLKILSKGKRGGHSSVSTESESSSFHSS
T7 sequence (O00574 whole entry): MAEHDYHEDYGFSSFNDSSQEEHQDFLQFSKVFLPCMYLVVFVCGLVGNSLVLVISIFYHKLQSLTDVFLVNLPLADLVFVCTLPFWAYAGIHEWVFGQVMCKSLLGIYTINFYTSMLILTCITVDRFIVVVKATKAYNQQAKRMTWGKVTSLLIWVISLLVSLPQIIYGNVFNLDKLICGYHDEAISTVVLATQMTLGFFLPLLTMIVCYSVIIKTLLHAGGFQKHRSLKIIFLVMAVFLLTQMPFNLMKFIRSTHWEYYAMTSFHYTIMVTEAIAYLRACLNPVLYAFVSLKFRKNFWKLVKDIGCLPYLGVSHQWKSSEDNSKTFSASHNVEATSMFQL
T4 sequence (P51681 whole entry): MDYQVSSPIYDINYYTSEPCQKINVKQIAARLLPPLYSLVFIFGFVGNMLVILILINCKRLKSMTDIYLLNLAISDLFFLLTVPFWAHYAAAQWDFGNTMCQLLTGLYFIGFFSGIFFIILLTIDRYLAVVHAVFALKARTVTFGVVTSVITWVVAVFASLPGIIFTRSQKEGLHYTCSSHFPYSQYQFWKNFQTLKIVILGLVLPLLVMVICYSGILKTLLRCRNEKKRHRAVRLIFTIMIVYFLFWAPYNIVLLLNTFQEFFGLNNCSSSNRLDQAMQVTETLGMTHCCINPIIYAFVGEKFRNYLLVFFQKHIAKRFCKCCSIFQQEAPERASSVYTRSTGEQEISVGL

B1: V62.1-R108H (antibody, human IgG1, V domains shown)
VH: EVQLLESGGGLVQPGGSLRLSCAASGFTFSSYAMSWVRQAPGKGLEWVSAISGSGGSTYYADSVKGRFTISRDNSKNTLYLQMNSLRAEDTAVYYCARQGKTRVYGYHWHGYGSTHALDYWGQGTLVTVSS
VL: EIVLTQSPGTLSLSPGERATLSCRASQSVSSSYLAWYQQKPGQAPRLLIYGASSRATGIPDRFSGSGSGTDFTLTISRLEPEDFAVYYCQQSDYSYPFTFGQGTKVEIKR
notes: Tested as an IgG (human IgG1 format); also called IgG1 V62.1 R108H
% Inhibition of SDF-1alpha-induced chemotaxis of U937 cells (IgG at 100 nM) (human CXCR4 [1]): 69% | MFI (human CXCR4 [2]): 861 | MFI (hCCR3): 4 | MFI (hCCR4): 3 | MFI (hCCR5): 3 | MFI (hCCR7): 4 | MFI (hCCR9): 3 | MFI (hCXCR6): 3 | EC50 (human CXCR4 [3]): < 10 nM

B2: V62.1 (antibody, human IgG1, V domains shown)
VH: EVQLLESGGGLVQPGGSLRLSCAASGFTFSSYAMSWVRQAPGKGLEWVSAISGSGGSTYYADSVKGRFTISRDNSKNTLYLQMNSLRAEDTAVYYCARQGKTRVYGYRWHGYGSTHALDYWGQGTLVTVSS
VL: B1 VL
notes: Tested as an IgG (human IgG1 format; DP47 heavy and DPK22 kappa light frameworks) made in CHO-3E7 cells; also called IgG V62.1
% Inhibition of SDF-1alpha-induced chemotaxis of U937 cells (IgG at 100 nM) (human CXCR4 [1]): 76% | MFI (human CXCR4 [2]): 1270 | MFI (hCCR3): 4 | MFI (hCCR4): 3 | MFI (hCCR5): 4 | MFI (hCCR7): 3 | MFI (hCCR9): 4 | MFI (hCXCR6): 3 | EC50 (human CXCR4 [3]): < 10 nM

B3: V62.1-R108H-m80 (antibody, human IgG1, V domains shown)
VH: EVQLLESGGGLVQPGGSLRLSCAASGFTISPYSITWVRQAPGKGLEWVSQINSYNGKTYYADSVKGRFTISRDNSKNTLYLQMNSLRAEDTAVYYCARQGKTRVYGYHWHGYGSTHALDYWGQGTLVTVSS
VL: B1 VL
notes: Tested as an IgG (human IgG1 format); also called V62.1-H-m80; V62.1-R108H-m80-Wt
% Inhibition of SDF-1alpha-induced chemotaxis of U937 cells (IgG at 100 nM) (human CXCR4 [1]): 75% | MFI (human CXCR4 [2]): 3870 | MFI (hCCR3): 2 | MFI (hCCR4): 2 | MFI (hCCR5): 8 | MFI (hCCR9): 8 | MFI (hCXCR6): 7 | EC50 (human CXCR4 [3]): < 10 nM

B4: V62.1-R108H-m47-m38 (antibody, human IgG1, V domains shown)
VH: EVQLLESGGGLVQPGGSLRLSCAASGFTFSSYAMSWVRQAPGKGLEWVSAISGSGGTRYADSVKGRFTISRDNSKNTLYLQMNSLRAEDTAVYYCARQGKTRVYGYHWHGYGSTHALDYWGQGTLVTVSS
VL: EIVLTQSPGTLSLSPGERATLSCRASQSVSSSYLAWYQQKPGQAPRLLIYGASSRATGIPDRFSGSGSGTDFTLTISRLEPEDFAVYYCQQWSSDSVTFGQGTKVEIKR
notes: Tested as an IgG (human IgG1 format); also called V62.1-H-m47-m38; IgG1 62.1-R108H-m47-m38
% Inhibition of SDF-1alpha-induced chemotaxis of U937 cells (IgG at 100 nM) (human CXCR4 [1]): 78% | MFI (human CXCR4 [2]): 2350 | MFI (hCCR4): 2 | MFI (hCCR5): 2 | MFI (hCCR7): 2 | MFI (hCCR9): 2 | MFI (hCXCR6): 2 | EC50 (human CXCR4 [3]): < 10 nM

Source: patent US20190389958A1 (MSM PROTEIN TECHNOLOGIES, published 2019)
